B1: Soluble human recombinant p97 (melanotransferrin) (other)
chain: GMEVRWCATSDPEQHKCGNMSEAFREAGIQPSLLCVRGTSADHCVQLIAAQEADAITLDGGAIYEAGKEHGLKPVVGEVYDQEVGTSYYAVAVVRRSSHVTIDTLKGVKSCHTGINRTVGWNVPVGYLVESGRLSVMGCDVLKAVSDYFGGSCVPGAGETSYSESLCRLCRGDSSGEGVCDKSPLERYYDYSGAFRCLAEGAGDVAFVKHSTVLENTDGKTLPSWGQALLSQDFELLCRDGSRADVTEWRQCHLARVPAHAVVVRADTDGGLIFRLLNEGQRLFSHEGSSFQMFSSEAYGQKDLLFKDSTSELVPIATQTYEAWLGHEYLHAMKGLLCDPNRLPPYLRWCVLSTPEIQKCGDMAVAFRRQRLKPEIQCVSAKSPQHCMERIQAEQVDAVTLSGEDIYTAGKKYGLVPAAGEHYAPEDSSNSYYVVAVVRRDSSHAFTLDELRGKRSCHAGFGSPAGWDVPVGALIQRGFIRPKDCDVLTAVSEFFNASCVPVNNPKNYPSSLCALCVGDEQGRNKCVGNSQERYYGYRGAFRCLVENAGDVAFVRHTTVFDNTNGHNSEPWAAELRSEDYELLCPNGARAEVSQFAACNLAQIPPHAVMVRPDTNIFTVYGLLDKAQDLFGDDHNKNGFKMFDSSNYHGQDLLFKDATVRAVPVGEKTTYRGWLGLDYVAALEGMSSQQCSG
notes: Provided by Biomarin Pharmaceutical Inc; also called soluble p97; MTf

Assays:
plasminogen [1] = biological target: T1, plasminogen (UniProt P00747 20-810); experiment: cell-based or functional assay
T1 sequence (P00747 20-810 limits assumed): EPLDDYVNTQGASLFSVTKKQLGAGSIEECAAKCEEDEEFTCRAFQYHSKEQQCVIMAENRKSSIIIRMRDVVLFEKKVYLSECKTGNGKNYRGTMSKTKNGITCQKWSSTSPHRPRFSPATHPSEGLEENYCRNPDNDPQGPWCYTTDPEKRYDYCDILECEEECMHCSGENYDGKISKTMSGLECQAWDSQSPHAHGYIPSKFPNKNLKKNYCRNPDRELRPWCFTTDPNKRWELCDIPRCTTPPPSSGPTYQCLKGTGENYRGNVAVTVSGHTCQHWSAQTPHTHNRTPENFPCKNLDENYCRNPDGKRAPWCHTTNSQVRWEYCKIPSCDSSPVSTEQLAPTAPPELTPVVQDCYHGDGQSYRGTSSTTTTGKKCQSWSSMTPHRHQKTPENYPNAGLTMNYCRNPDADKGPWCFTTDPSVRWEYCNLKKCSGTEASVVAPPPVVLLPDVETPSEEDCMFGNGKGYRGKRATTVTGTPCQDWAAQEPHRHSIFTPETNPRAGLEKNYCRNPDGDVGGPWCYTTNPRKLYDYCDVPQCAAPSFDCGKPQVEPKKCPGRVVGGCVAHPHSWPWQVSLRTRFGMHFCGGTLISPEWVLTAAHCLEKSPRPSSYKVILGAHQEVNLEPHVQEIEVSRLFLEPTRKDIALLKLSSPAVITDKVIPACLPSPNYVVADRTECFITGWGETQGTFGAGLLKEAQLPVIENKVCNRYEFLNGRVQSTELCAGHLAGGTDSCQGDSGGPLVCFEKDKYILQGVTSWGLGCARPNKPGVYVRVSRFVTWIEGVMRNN

plasmin = plasmin (UniProt P00747 97-810, limits assumed); experiment: SPR (BIAcore), plasmin injected over immobilised p97
plasmin, sequence (P00747 97-810 limits assumed): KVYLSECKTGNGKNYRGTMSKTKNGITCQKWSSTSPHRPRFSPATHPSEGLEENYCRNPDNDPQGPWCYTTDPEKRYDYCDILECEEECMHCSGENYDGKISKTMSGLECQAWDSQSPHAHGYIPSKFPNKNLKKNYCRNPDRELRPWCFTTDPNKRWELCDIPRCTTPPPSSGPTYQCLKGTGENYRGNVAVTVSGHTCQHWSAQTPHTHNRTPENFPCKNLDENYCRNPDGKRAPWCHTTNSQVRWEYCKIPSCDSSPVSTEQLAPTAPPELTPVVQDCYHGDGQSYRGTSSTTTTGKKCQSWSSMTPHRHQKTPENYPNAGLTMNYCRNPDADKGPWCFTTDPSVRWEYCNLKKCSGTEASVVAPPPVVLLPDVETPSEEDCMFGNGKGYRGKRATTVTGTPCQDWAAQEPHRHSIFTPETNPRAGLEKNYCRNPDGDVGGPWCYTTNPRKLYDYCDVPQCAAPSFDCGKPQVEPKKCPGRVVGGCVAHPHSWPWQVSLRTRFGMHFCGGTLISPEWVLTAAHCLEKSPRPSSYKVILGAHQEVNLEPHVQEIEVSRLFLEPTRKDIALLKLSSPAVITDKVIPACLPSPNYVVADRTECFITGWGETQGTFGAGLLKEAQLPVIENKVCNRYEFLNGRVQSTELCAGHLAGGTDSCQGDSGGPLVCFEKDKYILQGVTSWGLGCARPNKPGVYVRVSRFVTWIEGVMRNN
Description: (§1) Ringer solution or a 50 mM Tris/HCl buffer (pH 7.5) containing 150 mM NaCl and 50 mM CaCl₂ is used as the eluent buffer. Proteins are diluted in the corresponding eluent buffer and injected onto the sensor chip surface. Protein interactions are analyzed using both the Langmuir binding model, which is the simplest model for 1:1 interaction between analyte and immobilized ligand, and a two-state conformational change model which describes a 1:1 binding of analyte to immobilized ligand followed by a conformational change.
(§2) The SPR response for these proteins is plotted in RU as a function of time.
(§3) About 8-10 ng/mm² of PAI-1 was also immobilized onto another well of a sensor chip surface using NHS/EDC coupling conditions.

[2] = biological target: the molecule itself; experiment: SPR (BIAcore), soluble p97 injected over p97 immobilised on a CM5 chip
Description: as §1
(§4) Transcytosis experiments are performed at 37° C. for 2 hrs. […] At the end of the experiment, radiolabelled proteins are measured in the lower chamber of each well by TCA precipitation.

plasminogen [3] = biological target: T1, plasminogen; experiment: SPR (BIAcore), p97 over immobilised plasminogen, two state conformation change model
Description: as §1

[4] = biological target: T2, pro-urokinase plasminogen activator (pro-uPA) (UniProt P00749 21-431, limits assumed); experiment: SPR (BIAcore), two state conformational change model; text value differs from Table 3
T2 construct: Bought reagent; also called sc-uPA; scu-PA
Description: (§5) Protein interactions are analyzed using both the Langmuir binding model, which is the simplest model for 1:1 interaction between analyte and immobilized ligand, and a two-state conformational change model which describes a 1:1 binding of analyte to immobilized ligand followed by a conformational change.
as §2, §3

[5] = biological target: T2, pro-urokinase plasminogen activator …; experiment: SPR (BIAcore), pro-uPA over immobilised p97, two state conformational change model (ka1)
Description: as §5, §2, §3

[6] = biological target: T2, pro-urokinase plasminogen activator …; experiment: SPR (BIAcore), pro-uPA over immobilised p97, two state conformational change model (kd1)
Description: as §5, §2, §3

plasminogen [7] = biological target: T1, plasminogen; experiment: SPR (BIAcore), plasminogen over immobilised p97, two state conformational change model (ka1)
Description: as §1, §2, §3

plasminogen [8] = biological target: T1, plasminogen; experiment: SPR (BIAcore), plasminogen over immobilised p97, two state conformational change model (kd1)
Description: as §1, §2, §3

[9] = biological target: T2, pro-urokinase plasminogen activator …; experiment: SPR (BIAcore), pro-uPA over immobilised p97, two state conformational change model (apparent KD)
Description: as §5, §2, §3

plasminogen [10] = biological target: T1, plasminogen; experiment: SPR (BIAcore), plasminogen over immobilised p97, two state conformational change model (apparent KD)
Description: as §1, §2, §3

plasminogen [11] = biological target: T1, plasminogen; experiment: SPR (BIAcore), various concentrations of p97 injected over immobilised plasminogen; plasminogen immobilized, p97 injected
Description: as §1

[12] = biological target: B1; experiment: SPR (BIAcore), angiostatin injected over immobilised p97
Description: as §1, §2, §3

[13] = biological target: B1; experiment: SPR (BIAcore), RAP injected over immobilised p97
Description: as §1, §4

[14] = biological target: B1; experiment: not described (Discussion; presumably SPR)
[15] = biological target: B1; experiment: SPR (BIAcore), tPA injected over immobilised p97
Description: as §1, §2, §3

**Q.** With B1 as the binder, how does the “increase of plasminogen activation by tPA after 180 minutes (VLK-peptide hydrolysis)” value (plasminogen [1]) read?
**A.** 6 fold

**Q.** What about the “increase of plasminogen activation by tPA in the presence of p97 (VLK peptide hydrolysis)” value (plasminogen [1]) of the same binder?
**A.** 4 fold

**Q.** Does B1 bind (plasmin)?
**A.** no binding (tested: 0.05 µg/µl)

**Q.** Does B1 bind [2]?
**A.** no binding (tested: 0.05 µg/µl (5 µg/100 µl))

**Q.** What about the Kd (plasminogen [3]) of the same binder?
**A.** 260 nM

**Q.** And the kon [4]?
**A.** 6600 M⁻¹ s⁻¹

**Q.** What about the kon [5] of the same binder?
**A.** 6620 M⁻¹ s⁻¹

**Q.** What about the koff [6] of the same binder?
**A.** 0.0017 s⁻¹

**Q.** What about the kon (plasminogen [7]) of the same binder?
**A.** 21000 M⁻¹ s⁻¹

**Q.** What about the koff (plasminogen [8]) of the same binder?
**A.** 0.043 s⁻¹

**Q.** What about the Kd [9] of the same binder?
**A.** 65 nM

**Q.** What about the Kd (plasminogen [10]) of the same binder?
**A.** 350 nM

**Q.** What about the Kd (plasminogen [11]) of the same binder?
**A.** 275 nM

B2: angiostatin (other, UniProt P00747 98-459, looked up)
chain: VYLSECKTGNGKNYRGTMSKTKNGITCQKWSSTSPHRPRFSPATHPSEGLEENYCRNPDNDPQGPWCYTTDPEKRYDYCDILECEEECMHCSGENYDGKISKTMSGLECQAWDSQSPHAHGYIPSKFPNKNLKKNYCRNPDRELRPWCFTTDPNKRWELCDIPRCTTPPPSSGPTYQCLKGTGENYRGNVAVTVSGHTCQHWSAQTPHTHNRTPENFPCKNLDENYCRNPDGKRAPWCHTTNSQVRWEYCKIPSCDSSPVSTEQLAPTAPPELTPVVQDCYHGDGQSYRGTSSTTTTGKKCQSWSSMTPHRHQKTPENYPNAGLTMNYCRNPDADKGPWCFTTDPSVRWEYCNLKKCSGTEA
notes: domain: angiostatin (plasminogen fragment)
**Q.** Does B2 bind [12]?
**A.** no binding (tested: 0.05 µg/µl)

B3: receptor-associated protein (RAP) (other, UniProt P30533 35-357, looked up)
chain: YSREKNQPKPSPKRESGEEFRMEKLNQLWEKAQRLHLPPVRLAELHADLKIQERDELAWKKLKLDGLDEDGEKEARLIRNLNVILAKYGLDGKKDARQVTSNSLSGTQEDGLDDPRLEKLWHKAKTSGKFSGEELDKLWREFLHHKEKVHEYNVLLETLSRTEEIHENVISPSDLSDIKGSVLHSRHTELKEKLRSINQGLDRLRRVSHQGYSTEAEFEEPRVIDLWDLAQSANLTDKELEAFREELKHFEAKIEKHNHYQKQLEIAHEKLRHAESVGDGERVSRSREKHALLEGRTKELGYTVKKHLQDLSGRISRARHNEL
**Q.** Does B3 bind [13]?
**A.** no binding (tested: 0.05 µg/µl)

B4: ovalbumin (other, UniProt P01012 2-386, looked up)
chain: GSIGAASMEFCFDVFKELKVHHANENIFYCPIAIMSALAMVYLGAKDSTRTQINKVVRFDKLPGFGDSIEAQCGTSVNVHSSLRDILNQITKPNDVYSFSLASRLYAEERYPILPEYLQCVKELYRGGLEPINFQTAADQARELINSWVESQTNGIIRNVLQPSSVDSQTAMVLVNAIVFKGLWEKAFKDEDTQAMPFRVTEQESKPVQMMYQIGLFRVASMASEKMKILELPFASGTMSMLVLLPDEVSGLEQLESIINFEKLTEWTSSNVMEERKIKVYLPRMKMEEKYNLTSVLMAMGITDVFSSSANLSGISSAESLKISQAVHAAHAEINEAGREVVGSAEAGVDAASVSEEFRADHPFLFCIKHIATNAVLFFGRCVSP
**Q.** Does B4 bind [14]?
**A.** no binding

B5: tissue plasminogen activator (tPA) (enzyme, UniProt P00750 36-562, looked up)
chain: SYQVICRDEKTQMIYQQHQSWLRPVLRSNRVEYCWCNSGRAQCHSVPVKSCSEPRCFNGGTCQQALYFSDFVCQCPEGFAGKCCEIDTRATCYEDQGISYRGTWSTAESGAECTNWNSSALAQKPYSGRRPDAIRLGLGNHNYCRNPDRDSKPWCYVFKAGKYSSEFCSTPACSEGNSDCYFGNGSAYRGTHSLTESGASCLPWNSMILIGKVYTAQNPSAQALGLGKHNYCRNPDGDAKPWCHVLKNRRLTWEYCDVPSCSTCGLRQYSQPQFRIKGGLFADIASHPWQAAIFAKHRRSPGERFLCGGILISSCWILSAAHCFQERFPPHHLTVILGRTYRVVPGEEEQKFEVEKYIVHKEFDDDTYDNDIALLQLKSDSSRCAQESSVVRTVCLPPADLQLPDWTECELSGYGKHEALSPFYSERLKEAHVRLYPSSRCTSQHLLNRTVTDNMLCAGDTRSGGPQANLHDACQGDSGGPLVCLNDGRMTLVGIISWGLGCGQKDVPGVYTKVTNYLDWIRDNMRP
notes: Bought reagent
**Q.** Does B5 bind [15]?
**A.** no binding (tested: 0.05 µg/µl)

From patent US20070053894A1 (TRANSFERT PLUS, published 2007)
